Reference: publication PMC8408865

Molecular target: C-terminal domain of Caenorhabditis elegans KCC-1, wild type, as used in solution (SEC, SEC/MALS) (C. elegans)
Test: SEC

stoichiometry N: 2
Substance: C-terminal domain of Caenorhabditis elegans KCC-1, wild type, as used in solution (SEC, SEC/MALS) (domain or fragment)
